This series relates to Escherichia coli TOP10. The series can be described thus: shrunken log2 fold change of peptide-encoding DNA abundance (4.5 h post-induction vs induction); higher = less antimicrobial activity (less host growth inhibition). As to conditions: time post-induction: 4.5 h; library: site-saturation at positions 5, 18, 19, 20.

Data on 50 sequences can be found in the supplement of paper PMC9112550, “Optimization of the antimicrobial peptide Bac7 by deep mutational scanning” (BMC Biology, 2022).
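Further: peptides expressed intracellularly from a pBAD plasmid library in pooled LB shake-flask culture, induced with 0.3% L-arabinose, DNA abundance read by NGS, three biological replicates, DESeq2 with apeglm shrinkage.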

As for RRIRERPPRLPRPRPRPQNRPRP, the “shrunken log2 fold change” value is -0.281.
As for RRIRQRPPRLPRPRPRPYWFPRP, the figure is 0.00499; as for RRIRSRPPRLPRPRPRPRVAPRP, 0.179.
The figure for RRIRKRPPRLPRPRPRPDHQPRP is -0.0497; for RRIRQRPPRLPRPRPRPRWFPRP it is 0.0284.
As for RRIRCRPPRLPRPRPRPLWFPRP, the figure is -0.315; as for RRIRSRPPRLPRPRPRPMFGPRP, -0.325.
For the sequence RRIRTRPPRLPRPRPRPSLFPRP, the “shrunken log2 fold change” value is -0.248.
For the sequence RRIRDRPPRLPRPRPRPKCYPRP, the “shrunken log2 fold change” value was 0.013.
As for RRIRHRPPRLPRPRPRPSAHPRP, the figure is -0.139; as for RRIRDRPPRLPRPRPRPGVKPRP, 0.0336; as for RRIRERPPRLPRPRPRPPPRPRP, 0.837.
RRIRYRPPRLPRPRPRPFFYPRP: the “shrunken log2 fold change” value is -0.614.
The figure for RRIRHRPPRLPRPRPRPLMSPRP is -0.196; for RRIRHRPPRLPRPRPRPDGPPRP it is -0.0182; for RRIRLRPPRLPRPRPRPSKPPRP it is -0.0779.
Consider RRIRHRPPRLPRPRPRPSIAPRP, for which the “shrunken log2 fold change” value is -0.0614.
The figure for RRIRCRPPRLPRPRPRPELRPRP is 0.0185; for RRIRMRPPRLPRPRPRPDWYPRP it is -0.135.
RRIRRRPPRLPRPRPRPNFRPRP: the “shrunken log2 fold change” value was 0.0627.
The figure for RRIRKRPPRLPRPRPRPTAMPRP is 0.358; for RRIRGRPPRLPRPRPRPNRSPRP it is -0.0578; for RRIRTRPPRLPRPRPRPGGDPRP it is 0.46.
With RRIRARPPRLPRPRPRPVVYPRP, the “shrunken log2 fold change” value is -0.285.
For the sequence RRIRHRPPRLPRPRPRPGANPRP, the “shrunken log2 fold change” value is -0.0811.
The figure for RRIRFRPPRLPRPRPRPHAWPRP is -0.126; for RRIRDRPPRLPRPRPRPREFPRP it is -0.0261; for RRIRGRPPRLPRPRPRPKPFPRP it is 0.601.
The figure for RRIRRRPPRLPRPRPRPTDDPRP is 0.741; for RRIRSRPPRLPRPRPRPSWNPRP it is -0.342.
The figure for RRIRRRPPRLPRPRPRPAEYPRP is 0.0756; for RRIRVRPPRLPRPRPRPYVSPRP it is -0.084; for RRIRTRPPRLPRPRPRPAERPRP it is -0.104.
On to RRIRRRPPRLPRPRPRPSSKPRP, for which the “shrunken log2 fold change” value is -0.145.
With RRIRVRPPRLPRPRPRPCSYPRP, the “shrunken log2 fold change” value is -0.0326.
With RRIRYRPPRLPRPRPRPVGPPRP, the “shrunken log2 fold change” value was -0.328.
Consider RRIRRRPPRLPRPRPRPYSNPRP, for which the “shrunken log2 fold change” value is -0.414.
As for RRIRYRPPRLPRPRPRPYKSPRP, the figure is 0.0233; as for RRIRDRPPRLPRPRPRPNNCPRP, -0.466; as for RRIRDRPPRLPRPRPRPGNMPRP, -0.164.
With RRIRYRPPRLPRPRPRPLGMPRP, the “shrunken log2 fold change” value is -0.807.
The figure for RRIRMRPPRLPRPRPRPKIFPRP is 0.0739; for RRIRLRPPRLPRPRPRPDMRPRP it is -0.0825; for RRIRCRPPRLPRPRPRPMKCPRP it is -0.173.
The figure for RRIRYRPPRLPRPRPRPRHTPRP is -0.108; for RRIRARPPRLPRPRPRPHIKPRP it is -0.388.
As for RRIRHRPPRLPRPRPRPYMYPRP, the figure is -1.14; as for RRIRLRPPRLPRPRPRPNKWPRP, -0.066.
For the sequence RRIRKRPPRLPRPRPRPPDTPRP, the “shrunken log2 fold change” value was 0.896.
As for RRIRHRPPRLPRPRPRPSRMPRP, the figure is -0.518.
